Assay results taken from patent US6355619B1, “Peptide tumor cell growth inhibitors” (Board of Regents, The University of Texas System, priority 1996, dated 2002).
Values joined by “and” are separate entries in the source; they are usually repeats but may differ in a detail not shown here. Equal values may be shown once. Read-outs that look alike come from different tables or passages of the source.

Assays:
[1] = target: IL-8 receptors on human neutrophils (human); experiment: inhibition of 125I-IL-8 binding to human neutrophils; peptide concentration not given
[2] = target: IL-8 receptors on human neutrophils (human); experiment: cell-based or functional assay
[3] = target: MGSA/GROα receptors on Hs 294T melanoma cells; experiment: cell-based or functional assay
[4] = target: MGSA/GROα receptors on RPMI-7951 melanoma cells; experiment: cell-based or functional assay
[5] = target: IL-8 receptors on human neutrophils (human); experiment: inhibition of IL-8 binding to human neutrophils
[6] = target: MGSA/GROα receptors on Hs 294T melanoma cells; experiment: inhibition of 1 nM 125I-MGSA/GROα binding to Hs 294T cells
[7] = target: MGSA/GROα receptors on RPMI-7951 melanoma cells; experiment: inhibition of 1 nM 125I-MGSA/GROα binding to RPMI-7951 cells
[8] = target: IL-8 receptors on human neutrophils (human); experiment: inhibition of 125I-IL-8 binding to human neutrophils, peptide 10 µM
[9] = target: IL-8 receptors on human neutrophils (human); experiment: inhibition of 125I-IL-8 (10^-12 M) binding to human neutrophils, peptide 100 µM
[10] = target: IL-8 receptors on human neutrophils (human); experiment: inhibition of binding of 1 nM IL-8 to human neutrophils, 90 min on ice (FIG. 10)
[11] = target: IL-8 receptors on human neutrophils (human); experiment: inhibition of 1 nM 125I-IL-8 binding to human neutrophils, 90 min 4 °C, average of replicates
[12] = target: IL-8 receptors on human neutrophils (human); experiment: inhibition of 125I-IL-8 binding to human neutrophils, assuming purely competitive single site model
[13] = target: IL-8 receptors on human neutrophils (human); experiment: inhibition of 125I-IL-8 binding to human neutrophils, method of Example I; reference row of the heptamer table
[14] = target: IL-8 receptors on human neutrophils (human); experiment: inhibition of 125I-IL-8 binding to human neutrophils
[15] = target: IL-8 receptors on human neutrophils (human); experiment: inhibition of 125I-IL-8 binding to human neutrophils, method of Example I; D-amino acid heptamer series
[16] = system: IL-8 receptors on neutrophils; experiment: Inhibition of 125I-labeled IL-8 binding to human neutrophils
Method: Therefore, in pursuing this aim, the present inventors assayed various other peptide compositions for IL-8 inhibitory activity by screening a library of 400 groups of hexapeptides. In these screening assays, ^125I-labeled interleukin-8 (10^−12 M) was mixed with 100 μM peptide, then added to neutrophils and incubated at 4° C. for 90 min. The bound radioactivity was separated from unbound by centrifugation through a dense cushion of a mixture of paraffin and silicon oils and the ^125I bound to neutrophils was counted in a gamma radiation spectrometer, allowing the results to be expressed as the percent of IL-8 binding which was inhibited.
The use of human subjects for acquisition of neutrophils was approved by the Institutional Review Board for human experimentation. For the preparation of neutrophils, human blood was anticoagulated with heparin for enzyme release studies and with 0.33% sodium citrate for other studies. For chemotactic and enzyme release studies neutrophils were separated by dextran sedimentation and erythrocyte lysis by the method of Boyum (Kohler and Milstein, 1975). For binding studies and cytotoxic studies, the neutrophils were further purified in gradients of Percoll (Pharmacia Fine Chemicals, Piscataway, N.J.) to a purity of 90-93% (Kohler and Milstein, 1975).
Recombinant human IL-8 (72 amino acids; Pepro Tech Inc., Rocky Hill, N.J.) was radioactively labeled with ^125I by the chloramine T method of Hunter and Greenwood (Hunter and Greenwood, 1962). Binding studies were performed according to Besemer et al. (1989), as follows: Neutrophils in phosphate buffered saline pH 7.4 (PBS) containing 0.1% bovine serum albumin (BSA) were incubated with labeled ligand in the presence or absence of the peptide being tested for 90 min at 4° C. to reach equilibrium and then centrifuged at 12,000×g for 3 min in Beckman B microfuge (Beckman Instruments, Fullerton, Calif.), through a cushion consisting of a mixture of paraffin oil Fisher Scientific, Fair Lawn, N.J.) and silicon oil (Serva Co., N.Y., N.Y.). The pellet and supernatant were then counted in a gamma radiation spectrometer. The non-specific binding was estimated to measure the binding in the presence of 100-fold excess of non-labeled ligand. The binding constants were calculated using the computer programs Lundon I and Lundon II.
In these studies, a screening for inhibition was carried out at 100 μM concentration of the peptide being tested, with a 10^−12 M concentration of IL-8. In the first series of studies, twenty peptides were synthesized with the carboxyl-terminal residue of RRWWCX (SEQ ID NO:23) being changed to each of the standard protein amino acids in turn.

[17] = system: Hs 294T melanoma cells; experiment: Binding of 125I-IL-8 to Hs 294T melanoma cells; set-up: species or system human
Method: (§1) FIG. 12. The specificity of the receptor binding. The melanoma cells, Hs 294T (closed symbols) and RPMI-7951 (open symbols), were incubated with indicated concentrations of radiolabeled MGSA/GROα (circles) or IL-8 (triangles). The non-specific binding was estimated by the binding in the presence of 100 fold excess of unlabeled material. Specific binding which is calculated by subtracting non-specific binding from total binding is shown in this figure.
(§2) Binding studies with melanoma cell lines were performed by the method of Horuk and colleagues (Horuk et al., 1993). Briefly, the cells (1×10^5 cells/well) in 24-well plates were washed two times with Hank's Balanced Salt Solution and incubated with ^125I-labeled MGSA/GROα or IL-8 in the buffer containing 1% bovine serum albumin at 4° C. for 3 hr. The incubation was terminated by vacuum aspiration of the supernatant. The cells were washed three times in binding buffer, solubilized by the addition of 200 μl of 1% SDS, and transferred to vials for counting. The non-specific binding was estimated by measuring the binding in the presence of 100-fold excess of non-labeled ligand. The binding parameters were calculated using the Lundon II computer program (Lundon Software Inc., Chagrin Falls, Ohio).

[18] = system: RPMI-7951 melanoma cells; experiment: Binding of 125I-IL-8 to RPMI-7951 melanoma cells
Method: as §1, §2

[19] = system: MGSA/GROα receptors on Hs 294T melanoma cells; experiment: Binding of 125I-MGSA/GROα to Hs 294T melanoma cells; set-up: species or system human
Method: (§3) FIG. 11A. The binding of ^125I-labeled MGSA/GROα to melanoma cell lines, Hs 294T and RPMI-7951. The melanoma cells, 1×10^5, were incubated with 1 nM ^125I-MGSA/GROα in the presence of various concentrations of unlabeled MGSA/GROα. Binding inhibition curve with Hs 294T (closed circles) and RPMI-7951 (open circles). The lines shown in the graph are the best fit curves calculated using the London II computer program.
(§4) FIG. 13. The effect of Antileukinate on the binding of radiolabeled MGSA/GROα to the melanoma cell lines. The melanoma cells, Hs 294T (closed circles) and RPMI-7951 (open circles), were incubated with 1 nM ^125I-MGSA/GROα in the presence of different concentrations of Antileukinate. The lines shown in the graph are the best fit curves calculated using the London II computer program.
(§5) Recombinant human MGSA/GROα and IL-8 were purchased form Pepro Tech Inc. (Rocky Hill, N.J.) and radioactively labeled using ^125I-labeled Bolton-Hunter reagent (DuPont-NEN, Wilmington, Del.) (Bolton and Hunter, 1973). The labeled proteins were isolated using Sephadex G-25 column (Column PD-10, Pharmacia) pre-equilibrated with PBS containing 0.1% gelatin and stored at −70° C. after the addition of 1% bovine serum albumin.
as §2

[20] = system: MGSA/GROα receptors on RPMI-7951 melanoma cells; experiment: Binding of 125I-MGSA/GROα to RPMI-7951 melanoma cells; details: RPMI-7951
Method: as §3, §4, §5, §2

[21] = target: IL-8 receptors on human neutrophils (human); experiment: saturation binding of 125I-IL-8 to human neutrophils, Lundon I, one-site model, no peptide
[22] = target: Receptor 1 (Table 3; class of IL-8 receptors on human neutrophils, two-site model, Lundon II) (human); experiment: displacement of 1 nM 125I-IL-8 by unlabeled IL-8 on human neutrophils, Lundon II two-site model, IL-8 alone
[23] = target: Receptor 2 (Table 3; class of IL-8 receptors on human neutrophils, two-site model, Lundon II) (human); experiment: as above
[24] = target: Receptor 1 (Table 3; class of IL-8 receptors on human neutrophils, two-site model, Lundon II) (human); experiment: displacement of 1 nM 125I-IL-8 by unlabeled IL-8 on human neutrophils, Lundon II two-site model, +10 µM Ac-RRWWCR
[25] = target: Receptor 2 (Table 3; class of IL-8 receptors on human neutrophils, two-site model, Lundon II) (human); experiment: as above
[26] = target: Receptor 1 (Table 2; class of IL-8 receptors on human neutrophils, two-site model, Lundon I) (human); experiment: saturation binding of 125I-IL-8 to human neutrophils, Lundon I, two-site model, in presence of 10 µM Ac-RRWWCR-NH2
[27] = target: Receptor 2 (Table 2; class of IL-8 receptors on human neutrophils, two-site model, Lundon I) (human); experiment: as above
[28] = target: Receptor 1 (Table 2; class of IL-8 receptors on human neutrophils, two-site model, Lundon I) (human); experiment: saturation binding of 125I-IL-8 to human neutrophils, Lundon I, two-site model, in presence of 20 µM Ac-RRWWCR-NH2
[29] = target: Receptor 2 (Table 2; class of IL-8 receptors on human neutrophils, two-site model, Lundon I) (human); experiment: as above
[30] = target: Receptor 1 (Table 2; class of IL-8 receptors on human neutrophils, two-site model, Lundon I) (human); experiment: saturation binding of 125I-IL-8 to human neutrophils, Lundon I, two-site model, in presence of 40 µM Ac-RRWWCR-NH2
[31] = target: Receptor 2 (Table 2; class of IL-8 receptors on human neutrophils, two-site model, Lundon I) (human); experiment: as above
[32] = target: MGSA/GROα receptors on Hs 294T melanoma cells; experiment: 1 nM 125I-MGSA/GROα displaced by unlabeled MGSA/GROα on Hs 294T cells, Lundon II
[33] = target: MGSA/GROα receptors on RPMI-7951 melanoma cells; experiment: 1 nM 125I-MGSA/GROα displaced by unlabeled MGSA/GROα on RPMI-7951 cells, Lundon II
[34] = IL-8 alone, binding inhibition curves, Lundon II

Chain of Recombinant human IL-8 (72 amino acids) (P10145 28-99 limits assumed): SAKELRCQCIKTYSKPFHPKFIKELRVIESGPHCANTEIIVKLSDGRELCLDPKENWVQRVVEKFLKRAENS
Chain of Recombinant human MGSA/GROα (P09341 35-107): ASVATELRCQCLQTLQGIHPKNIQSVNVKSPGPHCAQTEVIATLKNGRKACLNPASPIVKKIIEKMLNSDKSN

Q: With Ac-KELRCQ-NH2 (peptide) as the substance, how does the % Binding Inhibition [1] read?
A: -0.4%

Q: Which results are given for Ac-RRWWCR-NH2 (peptide)?
A: chemotaxis of neutrophils stimulated with 10 nM of IL-8 [2]: 50 µM; enzyme release from neutrophils stimulated by IL-8 [2]: 0.8 µM; β-glucuronidase release stimulated by 100 nM of IL-8 [2]: 2 µM; growth of Hs 294T cells (cell number after 72 hr) [3]: 18 µM and 10 µM; growth of melanoma cells in culture [3]: 100 µM; growth of RPMI-7951 melanoma cells (cell number after 72 hr) [4]: 31 µM; growth of melanoma cells in culture [4]: 100 µM; fold effectiveness against the non-acetylated peptide [5]: 2 fold; EC50 [6]: 1000 nM; EC50 [7]: 1000 nM; % inhibition [8]: 20%; % INHIB. [9]: 112%; EC50 [10]: 25000 nM; % Binding Inhibition [1]: 98.6%; EC50 [11]: 13700 nM; Ki [12]: 10000 nM; % INHIB. [13]: 112%

Q: What does the source list for Ac-rrwwcrc-NH2 (peptide)?
A: fold potency against Ac-rrwwcr-NH2 (SEQ ID NO:1) [14]: 4 fold; % of IL-8 binding prevented [8]: 80%; % INHIB. [15]: 108%

Q: What does the source list for “IL-8: Recombinant human IL-8 (72 amino acids; Pepro Tech Inc.), radiolabeled ligand [reference compound]”?
A: Bmax of IL-8, one-site model ([16]; 0 μM peptide, binding isotherms, Lundon I): 174.2 ± 14.5 fmole/10^6 cells; Kd ([16]; 0 μM peptide, binding isotherms, Lundon I, read-out: Kd of IL-8, one-site model): 1.3 ± 0.2 nM; Receptor 1 Bmax of IL-8 [16, 34]: 38.8 ± 0.6 fmole/10^6 cells; Receptor 2 Bmax of IL-8 [16, 34]: 68.8 ± 0.7 fmole/10^6 cells; Kd ([16]; IL-8 alone, binding inhibition curves, Lundon II, read-out: Receptor 1 Kd of IL-8): 0.03 nM; Kd ([16]; IL-8 alone, binding inhibition curves, Lundon II, read-out: Receptor 2 Kd of IL-8): 0.67 ± 0.04 nM; specific binding of IL-8 to melanoma cells [17]: no specific binding; specific binding of IL-8 to melanoma cells [18]: no specific binding

Q: With “MGSA/GROα: Recombinant human MGSA/GROα (Pepro Tech Inc.), 73 amino acid α-chemokine” as the substance, how does the Kd [19] read?
A: ~6 nM

Q: And the “maximal binding (Bmax) of MGSA/GROα” value [19]?
A: 11 fmole/10^5 cells

Q: And the Kd [20]?
A: ~3 nM

Q: And the “maximal binding (Bmax) of MGSA/GROα” value [20]?
A: 15 fmole/10^5 cells

Q: Which results are given for “Recombinant human IL-8 (72 amino acids) (from UniProt P10145 28-99) (ligand)”?
A: Bmax (fmole/10^6 cells) [21]: 174; Kd [21]: 1.3 nM; Bmax (fmole/10^6 cells) [22]: 38.8; Kd [22]: 0.03 nM; Bmax (fmole/10^6 cells) [23]: 68.8; Kd [23]: 0.67 nM; Bmax (fmole/10^6 cells) [24]: 11.2; Kd [24]: 1.23 nM; Bmax (fmole/10^6 cells) [25]: 75.6; Kd [25]: 0.76 nM; Bmax (fmole/10^6 cells) [26]: 91.9; Kd [26]: 68 nM; Bmax (fmole/10^6 cells) [27]: 90.9; Bmax (fmole/10^6 cells) [28]: 90.9; Kd [28]: 42.8 nM; Bmax (fmole/10^6 cells) [29]: 76.2; Kd [29]: 0.8 nM; Bmax (fmole/10^6 cells) [30]: 82; Kd [30]: 13 nM; Bmax (fmole/10^6 cells) [31]: 44.2; Kd [31]: 1.3 nM

Q: Which reversal of the inhibition of Hs 294T growth by 50 µM Antileukinate [3] does the source give for “Recombinant human MGSA/GROα (from UniProt P09341 35-107) (ligand)” here?
A: 50 nM

Q: And the Kd [32]?
A: 6 nM

Q: What about the maximal binding (Bmax) (fmole/10^5 cells) [32] of the same substance?
A: 11

Q: And the Kd [33]?
A: 3 nM

Q: What about the maximal binding (Bmax) (fmole/10^5 cells) [33] of the same substance?
A: 15
